{"source": "patent US6933132", "key": {"[1]": {"target": "surface of a PHA-activated T cell (unidentified binding site for soluble attractin-1)", "experiment": "Scatchard analysis, 125I-labeled soluble attractin on cells, 1 hr at 4 C"}, "[2]": {"target": "surface of a resting T cell (unidentified binding site for soluble attractin-1)", "experiment": "Scatchard analysis, 125I-labeled soluble attractin on cells, 1 hr at 4 C"}}, "data": [{"substance": "purified natural serum soluble attractin-1, 125I-labeled (from UniProt O75882 1-1267) (ligand)", "values": [{"measurement": "Kd", "setting": "[1]", "result": "0.005 to 0.05", "unit": "nM"}, {"measurement": "molecules bound per cell (molecules per cell)", "setting": "[1]", "result": 2000}, {"measurement": "Kd", "setting": "[2]", "result": "0.005 to 0.05", "unit": "nM"}, {"measurement": "molecules bound per cell (molecules per cell)", "setting": "[2]", "result": 1000}]}]}
